Measured values as given in article PMC7431520.
pKd: −log10 of the molar value. Blank lines part the entries; values can stand above or below the substance they belong to.

Legend:
[1] = biological target: lamprey immune protein (LIP) (Lampetra japonica); experiment: SPR; LIP coupled to a CM5 chip (NHS/EDC, buffer pH 4.0, blocked with ethanolamine); analyte (rLAL2 or TRX) at different concentrations in HBS-EP; Biacore T200; affinity kinetics fitting
[2] = biological target: natural LAL2 protein (Lampetra japonica); experiment: SDS-PAGE and western blot band identified by LC-MS/MS; lamprey serum on 12% SDS-PAGE, blot with rabbit anti-LAL2 antibody; band around 40 kDa analysed by LC-MS/MS of tryptic peptides
[3] = biological target: recombinant LAL2 (rLAL2) protein (Lampetra japonica); experiment: SPR; rLAL2 coupled to a CM5 chip (NHS/EDC, buffer pH 4.0, blocked with ethanolamine); LIP as analyte at different concentrations in HBS-EP; Biacore T200; affinity kinetics fitting

pKd [1]: 7.25
Substance: recombinant LAL2 (rLAL2) protein (natural protein)

stoichiometry N [2]: 2
Substance: natural LAL2 protein (natural protein)

pKd [3]: 7.68
Substance: lamprey immune protein (LIP) (natural protein)
